Laboratory results published in US20200079833A1 (AstraZeneca / MedImmune, published 2020).
Starred links: 1 amine or outer side, 2 acyl side, 3 side chain; linkers in the order of their positions; H or OH if unused. Non-standard residues stand in square brackets, D forms with d. Groups on a side chain read outwards from the residue. Primed or numbered codes have the meaning given here. No end group written: not given here. *: point of attachment. γGlu = O=C(O)[C@H](CCC(=O)[*:2])N[*:1]; Stearoyl = CCCCCCCCCCCCCCCCCC(=O)*; αMeF = C[C@](N)(Cc1ccccc1)C(=O)O; αMeK = C[C@](N)(CCCCN)C(=O)O; αMeS = C[C@](N)(CO)C(=O)O; PEG2′ = not defined here; Aib = CC(C)(N)C(=O)O

T1: glucose-dependent insulinotropic peptide (gastric inhibitory polypeptide) receptor (human, UniProt P48546 22-466)
T1 sequence (looked up): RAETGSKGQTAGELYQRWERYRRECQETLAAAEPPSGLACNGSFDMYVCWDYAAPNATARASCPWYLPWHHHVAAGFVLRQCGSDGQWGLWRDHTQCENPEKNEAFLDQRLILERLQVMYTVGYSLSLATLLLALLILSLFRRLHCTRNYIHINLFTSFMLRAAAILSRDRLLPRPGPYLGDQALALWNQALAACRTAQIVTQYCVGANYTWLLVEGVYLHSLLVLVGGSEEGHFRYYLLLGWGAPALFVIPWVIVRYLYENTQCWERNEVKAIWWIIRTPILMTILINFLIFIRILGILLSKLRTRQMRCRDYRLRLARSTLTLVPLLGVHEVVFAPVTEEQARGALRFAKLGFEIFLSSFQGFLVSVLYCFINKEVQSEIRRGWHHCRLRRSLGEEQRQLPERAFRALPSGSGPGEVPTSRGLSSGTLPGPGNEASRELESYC


Experiments:
Assay in all cases: cell-based or functional assay
[1] = target: GLP-1 receptor (human, UniProt P43220 24-463)
[2] = target: glucagon receptor (human, UniProt P47871 26-477)
glucagon receptor, sequence (P47871 26-477): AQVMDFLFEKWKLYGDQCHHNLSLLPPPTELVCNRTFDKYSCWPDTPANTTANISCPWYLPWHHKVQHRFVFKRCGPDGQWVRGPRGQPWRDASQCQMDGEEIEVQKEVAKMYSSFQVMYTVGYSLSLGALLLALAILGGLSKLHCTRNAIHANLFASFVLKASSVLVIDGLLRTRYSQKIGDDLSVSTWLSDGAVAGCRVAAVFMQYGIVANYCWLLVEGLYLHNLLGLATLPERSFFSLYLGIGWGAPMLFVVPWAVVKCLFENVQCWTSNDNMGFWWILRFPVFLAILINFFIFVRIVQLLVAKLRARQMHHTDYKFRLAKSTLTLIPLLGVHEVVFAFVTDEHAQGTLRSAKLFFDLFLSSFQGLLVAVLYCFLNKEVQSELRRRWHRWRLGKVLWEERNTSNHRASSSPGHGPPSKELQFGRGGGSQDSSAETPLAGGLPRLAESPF

[3] = target: T1, glucose-dependent insulinotropic …

Binder | Primary assay EC50 (cAMP), Mean pM GLP-1R [1] [pM] | Primary assay EC50 (cAMP), n1 [1] [nM] | Primary assay EC50 (cAMP), n2 [1] [nM] | Primary assay EC50 (cAMP), n1 [2] [nM] | Primary assay EC50 (cAMP), n2 [2] [nM] | Primary assay EC50 (cAMP), n1 [3] [nM] | Primary assay EC50 (cAMP), n2 [3] [nM]
H[Aib]EGSFTSDV[αMeS]S[αMeF]LEGEAAK([PEG2′-PEG2′-PEG2′-Stearoyl])E[αMeF]IA[αMeF]VV[αMeK]GG-NH2 [SEQ ID NO 51] | 2.1 | 0.0017 | 0.0024 | 26 | 26 | 26 | 26
H[Aib]EGS[αMeF]TSDV[αMeS]S[αMeF]LEGEAAK([PEG2′-PEG2′-γGlu-Stearoyl])E[αMeF]IA[αMeF]VVKGG-NH2 [SEQ ID NO 50] | 216 | 0.17 | 0.26 | 26 | 26 | 26 | 26
H[Aib]EGS[αMeF]SSDVSS[αMeF]LEGEAA[αMeK]E[αMeF]IA[αMeF]VV[αMeK]GG-NH2 (N-terminus assumed; SMILES CC[C@H](C)[C@H](NC(=O)[C@](C)(Cc1ccccc1)NC(=O)[C@H](CCC(=O)O)NC(=O)[C@](C)(CCCCN)NC(=O)[C@H](C)NC(=O)[C@H](C)NC(=O)[C@H](CCC(=O)O)NC(=O)CNC(=O)[C@H](CCC(=O)O)NC(=O)[C@H](CC(C)C)NC(=O)[C@](C)(Cc1ccccc1)NC(=O)[C@H](CO)NC(=O)[C@H](CO)NC(=O)[C@@H](NC(=O)[C@H](CC(=O)O)NC(=O)[C@H](CO)NC(=O)[C@H](CO)NC(=O)[C@](C)(Cc1ccccc1)NC(=O)[C@H](CO)NC(=O)CNC(=O)[C@H](CCC(=O)O)NC(=O)C(C)(C)NC(=O)[C@@H](N)Cc1c[nH]cn1)C(C)C)C(=O)N[C@@H](C)C(=O)N[C@@](C)(Cc1ccccc1)C(=O)N[C@H](C(=O)N[C@H](C(=O)N[C@@](C)(CCCCN)C(=O)NCC(=O)NCC(N)=O)C(C)C)C(C)C) [SEQ ID NO 8] | 88 | 0.071 | 0.11 | 7.8 | 12 | 23 | 23
H[Aib]EGS[αMeF]TSDVSK([PEG2′-PEG2′-γGlu-Stearoyl])YLEGEAAKE[αMeF]IA[αMeF]VVEGG-NH2 [SEQ ID NO 57] | 153 | 0.14 | 0.17 | 25 | 25 | 25 | 25
H[Aib]EGS[αMeF]TSDV[αMeS]S[αMeF]LEGEAAK([PEG2′-PEG2′-PEG2′-Stearoyl])E[αMeF]IAWVV[αMeK]GG-NH2 [SEQ ID NO 55] | 1.8 | 0.0014 | 0.0023 | 25 | 25 | 25 | 25
H[Aib]EGS[αMeF]TSDVSS[αMeF]LEGEAAK([PEG2′-PEG2′-PEG2′-Stearoyl])E[αMeF]IA[αMeF]VV[αMeK]GG-NH2 [SEQ ID NO 52] | 2 | 0.0015 | 0.0025 | 26 | 26 | 26 | 26
H[Aib]EGS[αMeF]TSDV[αMeS]SYLEGEAAK([PEG2′-PEG2′-PEG2′-Stearoyl])E[αMeF]IA[αMeF]VV[αMeK]GG-NH2 [SEQ ID NO 53] | 0.9 | 0.00083 | 0.0009 | 26 | 26 | 26 | 26
H[Aib]EGS[αMeF]TSDV[αMeS]S[αMeF]LEGEAAK([PEG2′-PEG2′-γGlu-Stearoyl])E[αMeF]IAWVV[αMeK]GG-NH2 [SEQ ID NO 49] | 124 | 0.096 | 0.15 | 25 | 25 | 25 | 25
H[Aib]EGS[αMeF]TSDV[αMeS]S[αMeF]LEGEAAK([PEG2′-PEG2′-PEG2′-Stearoyl])E[αMeF]IA[αMeF]VVKGG-NH2 [SEQ ID NO 56] | 3.2 | 0.0029 | 0.0035 | 26 | 26 | 26 | 26
H[Aib]EGS[αMeF]TSDV[αMeS]S[αMeF]LEGEAAK([PEG2′-PEG2′-PEG2′-Stearoyl])EFIA[αMeF]VV[αMeK]GG-NH2 [SEQ ID NO 54] | 0.9 | 0.00079 | 0.00093 | 26 | 26 | 26 | 26

The remaining lines, values ahead:

Primary assay EC50 (cAMP), Mean pM GLP-1R [1] [pM] | Primary assay EC50 (cAMP), n1 [1] [nM] | Primary assay EC50 (cAMP), n2 [1] [nM] | Primary assay EC50 (cAMP), n1 [2] [nM] | Primary assay EC50 (cAMP), n2 [2] [nM] | Primary assay EC50 (cAMP), n1 [3] [nM] | Primary assay EC50 (cAMP), n2 [3] [nM] | Binder
211 | 0.243 | 0.179 | 25.6 | 25.6 | 25.6 | 25.6 | H[Aib]EGS[αMeF]TSDVSK([PEG2′-PEG2′-γGlu-Stearoyl])YLEGEAA[Aib]E[αMeF]IA[αMeF]VVEGG-NH2 [SEQ ID NO 59]
0.9 | 0.00085 | 0.00091 | 25 | 25 | 25 | 25 | H[Aib]EGS[αMeF]TSDVSK([PEG2′-PEG2′-PEG2′-Stearoyl])YLEGEAAKE[αMeF]IA[αMeF]VVEGG-NH2 [SEQ ID NO 61]
1.3 | 0.0014 | 0.0012 | 25 | 25 | 25 | 25 | H[Aib]EGS[αMeF]TSDVSK([PEG2′-PEG2′-PEG2′-Stearoyl])YLEGEAA[αMeK]E[αMeF]IA[αMeF]VVEGG-NH2 [SEQ ID NO 64]
4720 | 5.2 | 4.3 | 25 | 25 | 25 | 25 | H[Aib]EGS[αMeF]TSDVSK([PEG2′-PEG2′-γGlu-Stearoyl])YLEGEAAEE[αMeF]IA[αMeF]VVEGG-NH2 [SEQ ID NO 58]
16.9 | 0.0197 | 0.014 | 25.1 | 25.1 | 25.1 | 25.1 | H[Aib]EGS[αMeF]TSDV[αMeS]S[αMeF]LEGEAAKEFIK([PEG2′-PEG2′-γGlu-Stearoyl])WVVEGG-NH2 [SEQ ID NO 65]
49 | 0.049 | 0.05 | 25 | 25 | 25 | 25 | H[Aib]EGS[αMeF]TSDVSK([PEG2′-PEG2′-γGlu-Stearoyl])YLEGEAA[αMeK]E[αMeF]IA[αMeF]VVEGG-NH2 [SEQ ID NO 60]
1.9 | 0.002 | 0.0018 | 25 | 25 | 25 | 25 | H[Aib]EGS[αMeF]TSDVSK([PEG2′-PEG2′-PEG2′-Stearoyl])YLEGEAAEE[αMeF]IA[αMeF]VVEGG-NH2 [SEQ ID NO 62]
2.9 | 0.00321 | 0.00255 | 25.7 | 25.7 | 25.7 | 25.7 | H[Aib]EGS[αMeF]TSDVSK([PEG2′-PEG2′-PEG2′-Stearoyl])YLEGEAA[Aib]E[αMeF]IA[αMeF]VVEGG-NH2 [SEQ ID NO 63]
